Measured values published in article PMC8497999 (iScience, 2021).
Positions count from the first letter of the chain named. Numbers in names are those of the source. Read-outs that look alike come from different tables or passages of the source.

T1: His6-ECSIT (mature human mitochondrial ECSIT with N-terminal His tag) (human, UniProt Q9BQ95 49-431)
T1 sequence: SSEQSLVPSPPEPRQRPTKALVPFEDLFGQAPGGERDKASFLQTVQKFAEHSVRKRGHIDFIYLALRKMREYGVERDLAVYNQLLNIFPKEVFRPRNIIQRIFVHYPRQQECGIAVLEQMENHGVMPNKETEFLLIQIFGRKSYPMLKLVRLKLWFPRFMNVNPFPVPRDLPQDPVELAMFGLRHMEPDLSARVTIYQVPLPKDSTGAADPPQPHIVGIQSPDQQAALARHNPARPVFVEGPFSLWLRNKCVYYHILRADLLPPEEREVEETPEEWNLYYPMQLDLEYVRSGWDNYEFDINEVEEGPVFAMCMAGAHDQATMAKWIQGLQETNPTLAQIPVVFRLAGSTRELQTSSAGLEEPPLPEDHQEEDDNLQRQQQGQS

B1: His6-C-ECSIT (C-terminal domain of ECSIT, Leu249-Ser431, with N-terminal His tag) (domain or fragment)
chain: LPKDSTGAADPPQPHIVGIQSPDQQAALARHNPARPVFVEGPFSLWLRNKCVYYHILRADLLPPEEREVEETPEEWNLYYPMQLDLEYVRSGWDNYEFDINEVEEGPVFAMCMAGAHDQATMAKWIQGLQETNPTLAQIPVVFRLAGSTRELQTSSAGLEEPPLPEDHQEEDDNLQRQQQGQS
B2: C-ECSIT, tag-free (C-terminal domain of ECSIT, Leu249-Ser431) (domain or fragment)
chain: B1 chain
B3: ECSIT, tag-free (mature human mitochondrial ECSIT) (natural protein)
chain: T1 sequence
B4: ACAD9-His6 R469W (enzyme)
chain: AFAKELFLGKIKKKEVFPFPEVSQDELNEINQFLGPVEKFFTEEVDSRKIDQEGKIPDETLEKLKSLGLFGLQVPEEYGGLGFSNTMYSRLGEIISMDGSITVTLAAHQAIGLKGIILAGTEEQKAKYLPKLASGEHIAAFCLTEPASGSDAASIRSRATLSEDKKHYILNGSKVWITNGGLANIFTVFAKTEVVDSDGSVKDKITAFIVERDFGGVTNGKPEDKLGIRGSNTCEVHFENTKIPVENILGEVGDGFKVAMNILNSGRFSMGSVVAGLLKRLIEMTAEYACTRKQFNKRLSEFGLIQEKFALMAQKAYVMESMTYLTAGMLDQPGFPDCSIEAAMVKVFSSEAAWQCVSEALQILGGLGYTRDYPYERILRDTRILLIFEGTNEILRMYIALTGLQHAGRILTTRIHELKQAKVSTVMDTVGWRLRDSLGRTVDLGLTGNHGVVHPSLADSANKFEENTYCFGRTVETLLLRFGKTIMEEQLVLKRVANILINLYGMTAVLSRASRSIRIGLRNHDHEVLLANTFCVEAYLQNLFSLSQLDKYAPENLDEQIKKVSQQILEKRAYICAHPLDRTC
B5: ACAD9-His6 R518H (enzyme)
chain: B4 chain with W432R, R481H
B6: ACAD9-His6 (wild type ACAD9 with a C-terminal His-tag) (enzyme)
chain: B4 chain with W432R
B7: ACAD9-His6 E426Q (enzyme)
chain: B4 chain with E389Q, W432R
B8: ACAD9 (non-tagged wild type) (enzyme)
chain: B4 chain with W432R
B9: ACAD9-His6 R532W (enzyme)
chain: B4 chain with W432R, R495W
B10: Loop12-ACAD9 (ACAD9-His6 with the linker between Thr450 and Asp480 replaced by 12 residues of GGS repeats) (enzyme)
chain: AFAKELFLGKIKKKEVFPFPEVSQDELNEINQFLGPVEKFFTEEVDSRKIDQEGKIPDETLEKLKSLGLFGLQVPEEYGGLGFSNTMYSRLGEIISMDGSITVTLAAHQAIGLKGIILAGTEEQKAKYLPKLASGEHIAAFCLTEPASGSDAASIRSRATLSEDKKHYILNGSKVWITNGGLANIFTVFAKTEVVDSDGSVKDKITAFIVERDFGGVTNGKPEDKLGIRGSNTCEVHFENTKIPVENILGEVGDGFKVAMNILNSGRFSMGSVVAGLLKRLIEMTAEYACTRKQFNKRLSEFGLIQEKFALMAQKAYVMESMTYLTAGMLDQPGFPDCSIEAAMVKVFSSEAAWQCVSEALQILGGLGYTRDYPYERILRDTRILLIFEGTNEILRMYIALTGLQHAGRILTTGGSGGSGGSGGSDLGLTGNHGVVHPSLADSANKFEENTYCFGRTVETLLLRFGKTIMEEQLVLKRVANILINLYGMTAVLSRASRSIRIGLRNHDHEVLLANTFCVEAYLQNLFSLSQLDKYAPENLDEQIKKVSQQILEKRAYICAHPLDRTC
B11: His6-SMT3-NDUFAF1 (SUMO fusion of mature human NDUFAF1) (natural protein)
chain: YPFLGIRFAEYSSSLQKPVASPGKASSQRKTEGDLQGDHQKEVALDITSSEEKPDVSFDKAIRDEAIYHFRLLKDEIVDHWRGPEGHPLHEVLLEQAKVVWQFRGKEDLDKWTVTSDKTIGGRSEVFLKMGKNNQSALLYGTLSSEAPQDGESTRSGYCAMISRIPRGAFERKMSYDWSQFNTLYLRVRGDGRPWMVNIKEDTDFFQRTNQMYSYFMFTRGGPYWQEVKIPFSKFFFSNRGRIRDVQHELPLDKISSIGFTLADKVDGPFFLEIDFIGVFTDPAHTEEFAYENSPELNPRLFK

Tests used:
[1] = target: the molecule itself; assay: SEC
[2] = target: B8; assay: SEC
[3] = target: B6; assay: pull-down
[4] = target: the molecule itself; assay: SEC-SAXS
[5] = target: T1, His6-ECSIT (mature human mitochondrial …); assay: SEC
[6] = target: T1, His6-ECSIT (mature human mitochondrial …); assay: SEC; remark: listed apart in the source

Binder | stoichiometry N [1] | further results
B1 | 4 | stoichiometry N [2]: 1 C-ECSIT monomer per ACAD9 monomer (4:4)
B2 | – | stoichiometry N [3]: ~1 monomer:monomer
B3 | – | stoichiometry N [3]: ~1 monomer:monomer
B4 | 2 | –
B5 | 2 | –
B6 | 2 | –
B7 | 2 | –
B8 | – | stoichiometry N [4]: 2
B9 | 2 | –
B10 | 2 | –
B11 | – | stoichiometry N [5]: 1 NDUFAF1 monomer per ECSIT monomer (2:2); stoichiometry N [6]: 1 monomer:monomer
